Measured values as given in US20110002939A1 (BIOCON, published 2011).

Biological target: T1, rhCD6FC/Chimera (R and D systems) (human, UniProt P30203 25-398)
T1 construct: Bought reagent; also called CD6 receptor; Fc part of the bought chimera not given
T1 sequence (looked up): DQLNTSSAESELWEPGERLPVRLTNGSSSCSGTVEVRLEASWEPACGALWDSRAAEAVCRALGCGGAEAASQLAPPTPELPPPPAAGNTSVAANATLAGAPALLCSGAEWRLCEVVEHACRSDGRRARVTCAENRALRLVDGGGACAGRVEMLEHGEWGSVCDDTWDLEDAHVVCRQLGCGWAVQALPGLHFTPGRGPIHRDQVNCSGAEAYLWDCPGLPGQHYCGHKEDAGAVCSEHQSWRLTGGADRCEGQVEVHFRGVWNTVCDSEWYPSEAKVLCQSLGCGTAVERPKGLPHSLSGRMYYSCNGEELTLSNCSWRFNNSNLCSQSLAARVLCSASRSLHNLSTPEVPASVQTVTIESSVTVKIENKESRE
Test: ELISA, plate-bound rhCD6-Fc, T1h 0.2 mg/ml with varying rhALCAM-Fc, anti human IgG (Fab)2 ALP detection
Experimental: The rhCD6FC/Chimera (R and D systems) (100 μg/ml) was diluted in coating buffer and 100 μl was added to each well of a 96 well Nunc-Maxisorp plate. The plate was then incubated at 4° C. overnight. The Plate was washed thrice with PBS Tween 20. Subsequently, 200 μl of blocking solution (2% BSA+0.1%Tween 20 in 1× PBS) was added and incubated for 1 hour at 37° C. After incubation, the plate was washed again with PBS Tween thrice, followed by the addition of T1h monoclonal antibody (0.2 mg/ml) and .rhALCAMFc (R and D systems) at varying concentrations. This was then incubated for an hour at 37° C. The plate was washed 3 times subsequently with PBS Tween. To the wells 200 μl of anti human IgG (Fab)₂ ALP (1:20000) diluted in blocking buffer was added and incubated for 1 hour at 37° C. The plate was washed thrice with PBS tween and 200 μl of p-Nitrophenyl Phosphate (PNPP) substrate is added to each well and incubated at 37° C. till colour develops around 15 minutes. Reading was taken at 405 nm using a BIOTEK Micro Plate Reader.

- binding result: binds
B1: T1h, humanized IgG1 isotype anti-CD6 monoclonal antibody (antibody, V domains shown)
VH: EVQLVESGGGLVKPGGSLKLSCAASGFKFSRYAMSWVRQAPGKRLEWVATISSGGSYIYYPDSVKGRFTISRDNVKNTLYLQMSSLRSEDTAMYYCARRDYDLDYFDSWGQGTLVTVSS
VL: DIQMTQSPSSLSASVGDRVTITCKASRDIRSYLTWYQQKPGKAPKTLIYYATSLADGVPSRFSGSGSGQDYSLTISSLESDDTATYYCLQHGESPFTLGSGTKLEIK
notes: also called humanized IOR-T1; sT1h
